Reference: patent publication US20140093496A1 (Chugai, published 2014)

T1: FcγRIIa type R extracellular domain with C-terminal His tag (human, UniProt P12318 34-217)
T1 construct: extracellular domain; also called FcgRIIaR; FcγRIIaR
T1 sequence (looked up): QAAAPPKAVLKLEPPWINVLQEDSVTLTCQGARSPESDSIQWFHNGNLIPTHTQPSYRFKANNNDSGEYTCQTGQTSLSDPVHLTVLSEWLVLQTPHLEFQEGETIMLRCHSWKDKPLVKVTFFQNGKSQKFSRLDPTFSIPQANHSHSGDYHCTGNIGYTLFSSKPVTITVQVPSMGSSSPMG

B1: IL6R-BP186/IL6R-L (antibody, human IgG1, kappa)
heavy: QVQLQESGPGLVKPSETLSLTCAVSGHSISHDHAWSWVRQPPGEGLEWIGFISYSGITNYNPSLQGRVTISRDNSKNTLYLQMNSLRAEDTAVYYCARSLARTTAMDYWGEGTLVTVSSASTKGPSVFPLAPSSKSTSGGTAALGCLVKDYFPEPVTVSWNSGALTSGVHTFPAVLQSSGLYSLSSVVTVPSSSLGTQTYICNVNHKPSNTKVDKKVEPKSCDKTHTCPPCPAPDYLGDDSVFLFPPKPKDTLMISRTPEVTCVVVDVSHEDGEVKFNWYVDGVEVHNAKTKPREEQDNSTYRVVSVLTVLHQDWLNGKEYKCKVSNAALPKPIEKTISKAKGQPREPQVYTLPPSRDELTKNQVSLTCLVKGFYPSDIAVEWESNGQPENNYKTTPPVLDSDGSFFLYSKLTVDKSRWQQGNVFSCSVMHEALHNHYTQESLSLSP
light: not shown
notes: E233D/L234Y/G237D/P238D/P271G/Y296D/K326A/A330K (EU) in IL6R-B3; copies: 2 + 2
B2: IL6R-BP204/IL6R-L (antibody, human IgG1, kappa)
heavy: QVQLQESGPGLVKPSETLSLTCAVSGHSISHDHAWSWVRQPPGEGLEWIGFISYSGITNYNPSLQGRVTISRDNSKNTLYLQMNSLRAEDTAVYYCARSLARTTAMDYWGEGTLVTVSSASTKGPSVFPLAPSSKSTSGGTAALGCLVKDYFPEPVTVSWNSGALTSGVHTFPAVLQSSGLYSLSSVVTVPSSSLGTQTYICNVNHKPSNTKVDKKVEPKSCDKTHTCPPCPAPDLLGGDSVFLFPPKPKDTLMISRTPEVTCVVVDVSHEDGEVKFNWYVDGVEVHNAKTKPREEQYNSTYRVVSVLTVLHQDWLNGKEYKCKVSNAALPRPIEKTISKAKGQPREPQVYTLPPSRDELTKNQVSLTCLVKGFYPSDIAVEWESNGQPENNYKTTPPVLDSDGSFFLYSKLTVDKSRWQQGNVFSCSVMHEALHNHYTQESLSLSP
light: not shown
notes: E233D/P238D/P271G/K326A/A330R (EU) in IL6R-B3; copies: 2 + 2
B3: IL6R-BP210/IL6R-L (antibody, human IgG1, kappa)
heavy: QVQLQESGPGLVKPSETLSLTCAVSGHSISHDHAWSWVRQPPGEGLEWIGFISYSGITNYNPSLQGRVTISRDNSKNTLYLQMNSLRAEDTAVYYCARSLARTTAMDYWGEGTLVTVSSASTKGPSVFPLAPSSKSTSGGTAALGCLVKDYFPEPVTVSWNSGALTSGVHTFPAVLQSSGLYSLSSVVTVPSSSLGTQTYICNVNHKPSNTKVDKKVEPKSCDKTHTCPPCPAPELLGDDSVFLFPPKPKDTLMISRTPEVTCVVVDVSDEDGEVKFNWYVDGVEVHNAKTKPREEQYNSTYRVVSVLTVLHQDWLNGKEYKCKVSNKALPRPIEKTISKAKGQPREPQVYTLPPSRDELTKNQVSLTCLVKGFYPSDIAVEWESNGQPENNYKTTPPVLDSDGSFFLYSKLTVDKSRWQQGNVFSCSVMHEALHNHYTQESLSLSP
light: not shown
notes: G237D/P238D/H268D/P271G/A330R (EU) in IL6R-B3; copies: 2 + 2
B4: IL6R-BP197/IL6R-L (antibody, human IgG1, kappa)
heavy: QVQLQESGPGLVKPSETLSLTCAVSGHSISHDHAWSWVRQPPGEGLEWIGFISYSGITNYNPSLQGRVTISRDNSKNTLYLQMNSLRAEDTAVYYCARSLARTTAMDYWGEGTLVTVSSASTKGPSVFPLAPSSKSTSGGTAALGCLVKDYFPEPVTVSWNSGALTSGVHTFPAVLQSSGLYSLSSVVTVPSSSLGTQTYICNVNHKPSNTKVDKKVEPKSCDKTHTCPPCPAPDYLGDDSVFLFPPKPKDTLMISRTPEVTCVVVDVSDEDGEVKFNWYVDGVEVHNAKTKPREEQDNSTYRVVSVLTVLHQDWLNGKEYKCKVSNDALPKPIEKTISKAKGQPREPQVYTLPPSRDELTKNQVSLTCLVKGFYPSDIAVEWESNGQPENNYKTTPPVLDSDGSFFLYSKLTVDKSRWQQGNVFSCSVMHEALHNHYTQESLSLSP
light: not shown
notes: E233D/L234Y/G237D/P238D/H268D/P271G/Y296D/K326D/A330K (EU) in IL6R-B3; copies: 2 + 2
B5: IL6R-BP196/IL6R-L (antibody, human IgG1, kappa)
heavy: QVQLQESGPGLVKPSETLSLTCAVSGHSISHDHAWSWVRQPPGEGLEWIGFISYSGITNYNPSLQGRVTISRDNSKNTLYLQMNSLRAEDTAVYYCARSLARTTAMDYWGEGTLVTVSSASTKGPSVFPLAPSSKSTSGGTAALGCLVKDYFPEPVTVSWNSGALTSGVHTFPAVLQSSGLYSLSSVVTVPSSSLGTQTYICNVNHKPSNTKVDKKVEPKSCDKTHTCPPCPAPEYLGGDSVFLFPPKPKDTLMISRTPEVTCVVVDVSDEDGEVKFNWYVDGVEVHNAKTKPREEQYNSTYRVVSVLTVLHQDWLNGKEYKCKVSNAALPKPIEKTISKAKGQPREPQVYTLPPSRDELTKNQVSLTCLVKGFYPSDIAVEWESNGQPENNYKTTPPVLDSDGSFFLYSKLTVDKSRWQQGNVFSCSVMHEALHNHYTQESLSLSP
light: not shown
notes: L234Y/P238D/H268D/P271G/K326A/A330K (EU) in IL6R-B3; copies: 2 + 2

The binders below were run against T1, FcγRIIa type R extracellular domain … (assay: SPR (Biacore)).
Description: IL6R-L was utilized as the common antibody L chain for all of the antibodies, the antibodies were expressed and purified according to the method of Reference Example 1, and binding to each of the FcγRs (FcγRIa, FcγRIIa H type, FcγRIIa R type, FcγRIIb, and FcγRIIIa V type) was comprehensively evaluated by the method of Reference Example 2.
Furthermore, KD(IIaR)/KD(IIb) and KD(IIaH)/KD(IIb) in the table respectively represent the value obtained by dividing the KD value of each variant for FcγRIIaR by the KD value of each variant for FcγRIIb, and the value obtained by dividing the KD value of each variant for FcγRIIaH by the KD value of each variant for FcγRIIb. KD(IIb) of the parent polypeptide/KD(IIb) of the altered polypeptide refers to the value obtained by dividing the KD value of the parent polypeptide for FcγRIIb by the KD value of each variant for FcγRIIb.

Row | Binder | Kd [µM]
1 | B1 | 0.96
2 | B2 | 4.5
3 | B3 | 1
4 | B4 | 0.98
5 | B5 | 3
